Broadly, the IC50 is the concentration that gives 50% inhibition. The low end stands for greater potency, the high end for weaker potency. The Kd is the constant that tells how readily two partners part at equilibrium.

In assay [1] the target is HLA-A*02:01. The experiment in a line: IEDB peptide-MHC binding, purified MHC/competitive/fluorescence; ≥ and ≤ were set here for values at or beyond the usual limits of such assays.
The target of another assay is HLA-A*24:02. The description is as above.
In another assay the target is HLA-B*15:01. The experiment in a line: IEDB peptide-MHC binding, purified MHC/competitive/fluorescence; filed as Kd, often an IC50 or EC50 that approximates it; ≥ and ≤ were set here for values at or beyond the usual limits of such assays. The conditions noted are these: source organism: Yersinia pestis Nepal516.
The target of the next assay is HLA-B*44:03. The experiment in a line: IEDB peptide-MHC binding, purified MHC/competitive/radioactivity; filed as Kd, often an IC50 or EC50 that approximates it; ≥ and ≤ were set here for values at or beyond the usual limits of such assays.
The target of the next assay is HLA-B*40:01. Described as above.
Assay [2] addresses HLA-A*02:01. Described as above.
The next assay has as its target HLA-B*07:02. The assay is described as above.
Another assay deals with HLA-A*30:01. Described as above. The conditions noted are these: source organism: Dengue virus 1 Brazil/97-11/1997.
For another assay, the target named is HLA-B*51:01. Described as above. The conditions noted are these: source organism: Dengue virus 2 16681-PDK53.
For the next assay, the target named is HLA-B*44:02. The assay is described as above.
A further assay addresses HLA-B*39:01. The experiment in a line: IEDB peptide-MHC binding, purified MHC/competitive/fluorescence; filed as Kd, often an IC50 or EC50 that approximates it; ≥ and ≤ were set here for values at or beyond the usual limits of such assays.
In the next assay the target is HLA-A*02:02. The experiment in a line: IEDB peptide-MHC binding, purified MHC/competitive/radioactivity; filed as Kd, often an IC50 or EC50 that approximates it; ≥ and ≤ were set here for values at or beyond the usual limits of such assays. Particulars: source organism: Homo sapiens.
The mark [3] stands for this setting: source organism: Vaccinia virus WR.
[4] abbreviates: source organism: Dengue virus 1 Brazil/97-11/1997.
Setting [5] is: source organism: Dengue virus 4 Dominica/814669/1981.
Setting [6] is: source organism: Dengue virus 2 Jamaica/1409/1983.
Where [7] appears, read: source organism: Sudan ebolavirus.
[8] abbreviates: source organism: Zaire ebolavirus.
[9] abbreviates: source organism: Vaccinia virus.
The mark [10] stands for this setting: source organism: Dengue virus 3 Martinique/1243/1999.
The mark [11] stands for this setting: source organism: Dengue virus 4 Philippines/H241/1956.

Consider NGTLEFTPI, for which the IC50 in the assay with HLA-A*02:01 [1] (setting [3]) was 11.1 µM; with HLA-A*24:02 (setting [3]), 23.1 µM. Turning to TEYKRVMTF, the equilibrium dissociation constant (Kd) with HLA-B*15:01 worked out at 767 nM.

In the case of MEVTAKWLWG, in the assay with HLA-B*44:03 (setting [4]), the Kd turned out to be 128 nM.

Turning to EEIDKKDGDL, the values for the Kd with HLA-B*40:01 (setting [5]) and in the assay with HLA-B*44:03 (setting [5]) were 1890 nM and 421 nM, respectively.

For the sequence GEFGKAKGS, in the assay with HLA-B*44:03 (setting [6]), the dissociation constant Kd was 4160 nM. On to LTLTNTSII, for which the dissociation constant (Kd) in the assay with HLA-A*02:01 [2] (source organism: Lassa virus Josiah) came to 6250 nM. For the sequence LLMWITQCFL, the dissociation constant (Kd) with HLA-A*02:01 [2] (source organism: Homo sapiens) was found to be 43 nM. On to FEATARGARR, for which, in the assay with HLA-B*40:01 (setting [4]), the equilibrium dissociation constant (Kd) amounted to 1900 nM. On to RSRWSRKML, for which the Kd with HLA-B*07:02 (setting [4]) is 93.1 nM; with HLA-A*30:01, 90.4 nM.

Turning to SPIIDKKGKV, the Kd with HLA-B*51:01 was not below 69.6 µM; with HLA-B*07:02 (source organism: Dengue virus 2 16681-PDK53) it was 582 nM.

With FFVWVIILF, in the assay with HLA-A*24:02 (setting [7]), the IC50 was 1.51 µM. Take EYLFEVDNL: the concentration for half-maximal inhibition (IC50) is 43.7 µM with HLA-A*02:01 [1] (setting [8]) and 0.402 µM with HLA-A*24:02 (setting [8]). Consider NLEEICQLI, for which the figures for the half-maximal inhibitory concentration (IC50) with HLA-A*02:01 [1] (setting [8]) and in the assay with HLA-A*24:02 (setting [8]) were 65.1 µM and not below 90.8 µM, respectively. Sequence RNTTPMMIQ displayed a half-inhibitory concentration (IC50) in the assay with HLA-A*24:02 (setting [9]) not below 70.4 µM. With WENVPYLGK, the dissociation constant Kd with HLA-B*44:02 (setting [10]) was 8.42 µM. Turning to ADMGCVINW, the dissociation constant Kd turned out to be 0.0928 µM with HLA-B*44:02 (setting [10]) and 110 nM with HLA-B*44:03 (setting [10]). On to GIAWIPYFG, for which the IC50 with HLA-A*02:01 [1] (setting [7]) is 2.72 µM; with HLA-A*24:02 (setting [7]) it was not below 76.2 µM. RKHHTKIDS had an IC50 in the assay with HLA-A*24:02 (source organism: Variola virus) of 27.2 µM. In the case of VEITALILGA, the Kd with HLA-B*40:01 (setting [11]) stood at 842 nM. Regarding LVMKDGRVL, in the assay with HLA-B*07:02 (setting [6]), the dissociation constant Kd is 1.07 nM. Regarding ILMDSIFVST, the dissociation constant Kd in the assay with HLA-B*07:02 (source organism: Vaccinia virus Copenhagen) is not below 69600 nM.

YNAELLVAL registered a dissociation constant (Kd) with HLA-B*39:01 (source organism: Influenza A virus (A/gray teal/Australia/2/1979(H4N4))) of 0.9 nM. On to RAAGLQDCTM, for which the Kd with HLA-A*02:01 [2] (source organism: Hepatitis C virus (isolate 1)) was not below 50000 nM. Take REWCFTGERN: the Kd in the assay with HLA-B*40:01 (setting [11]) was 502 nM.

Consider KLEEEQIIL, for which the Kd came to 73.5 nM with HLA-A*02:02 and 72.1 nM with HLA-A*02:01 [2] (source organism: Homo sapiens).

Turning to ELSGYCSNI, the Kd with HLA-A*02:01 [2] (source organism: Lassa virus GA391) amounted to 12500 nM. Turning to IEVKTCIWPK, in the assay with HLA-B*40:01 (setting [4]), the Kd came to 2910 nM. On to SGASTSQETW, for which the Kd with HLA-B*44:02 (setting [4]) was 10.9 µM. As for RLGLSRPLL, the Kd with HLA-A*02:01 [2] (source organism: Hepatitis B virus subtype ayw) is not below 5000 nM. In turn, QYVDDANLE yielded a 50% inhibitory concentration (IC50) with HLA-A*24:02 (setting [9]) not below 1330 µM. SISGVLWQV: the Kd with HLA-A*02:01 [2] (source organism: Hepatitis C virus subtype 2b) stood at 36 nM. THEILWPSF: in the assay with HLA-B*39:01 (source organism: Shewanella putrefaciens CN-32), the Kd worked out at 2480 nM.

The record behind these values is the Immune Epitope Database (IEDB).
